Test results taken from the supplement of paper PMC9112550, “Optimization of the antimicrobial peptide Bac7 by deep mutational scanning” (BMC Biology, 2022).

These sequences were tested on Escherichia coli TOP10 (assay: shrunken log2 fold change of peptide-encoding DNA abundance (4.5 h post-induction vs induction); higher = less antimicrobial activity (less host growth inhibition)). Settings: time post-induction: 4.5 h; library: site-saturation at positions 5, 18, 19, 20.
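Note: peptides expressed intracellularly from a pBAD plasmid library in pooled LB shake-flask culture, induced with 0.3% L-arabinose, DNA abundance read by NGS, three biological replicates, DESeq2 with apeglm shrinkage.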

Sequence | shrunken log2 fold change
RRIRRRPPRLPRPRPRPLWCPRP | 0.186
RRIRRRPPRLPRPRPRPLWGPRP | 0.0229
RRIRRRPPRLPRPRPRPLWQPRP | 0.318
RRIRRRPPRLPRPRPRPLWRPRP | 0.348
RRIRRRPPRLPRPRPRPLWYPRP | -0.166
RRIRRRPPRLPRPRPRPLYYPRP | -0.259
RRIRRRPPRLPRPRPRPMADPRP | 0.357
RRIRRRPPRLPRPRPRPMAPPRP | 0.665
RRIRRRPPRLPRPRPRPMCWPRP | 0.0358
RRIRRRPPRLPRPRPRPMGNPRP | 0.0273
RRIRRRPPRLPRPRPRPMIVPRP | 0.00521
RRIRRRPPRLPRPRPRPMLVPRP | 0.196
RRIRRRPPRLPRPRPRPMPDPRP | 0.442
RRIRRRPPRLPRPRPRPMPPPRP | 0.676
RRIRRRPPRLPRPRPRPMQWPRP | 0.103
RRIRRRPPRLPRPRPRPMRLPRP | 0.667
RRIRRRPPRLPRPRPRPMSHPRP | 0.142
RRIRRRPPRLPRPRPRPMSQPRP | 0.247
RRIRRRPPRLPRPRPRPMTKPRP | 0.0629
RRIRRRPPRLPRPRPRPMWEPRP | 0.00178
RRIRRRPPRLPRPRPRPMWLPRP | 0.105
RRIRRRPPRLPRPRPRPMWQPRP | 0.381
RRIRRRPPRLPRPRPRPMWTPRP | -0.132
RRIRRRPPRLPRPRPRPNAEPRP | 0.0193
RRIRRRPPRLPRPRPRPNAKPRP | 0.0165

Sequence | shrunken log2 fold change
RRIRRRPPRLPRPRPRPNAVPRP | 0.23
RRIRRRPPRLPRPRPRPNCDPRP | 0.186
RRIRRRPPRLPRPRPRPNCYPRP | -0.0134
RRIRRRPPRLPRPRPRPNDHPRP | 0.0277
RRIRRRPPRLPRPRPRPNDRPRP | 0.205
RRIRRRPPRLPRPRPRPNEPPRP | 0.317
RRIRRRPPRLPRPRPRPNFIPRP | -0.481
RRIRRRPPRLPRPRPRPNFLPRP | 0.0376
RRIRRRPPRLPRPRPRPNGIPRP | -0.0555
RRIRRRPPRLPRPRPRPNGTPRP | 0.219
RRIRRRPPRLPRPRPRPNLDPRP | -0.152
RRIRRRPPRLPRPRPRPNLFPRP | 0.177
RRIRRRPPRLPRPRPRPNLHPRP | -0.288
RRIRRRPPRLPRPRPRPNLQPRP | -0.07
RRIRRRPPRLPRPRPRPNLVPRP | -0.023
RRIRRRPPRLPRPRPRPNMSPRP | 2.14
RRIRRRPPRLPRPRPRPNNAPRP | -0.18
RRIRRRPPRLPRPRPRPNPKPRP | 0.172
RRIRRRPPRLPRPRPRPNQCPRP | -0.0957
RRIRRRPPRLPRPRPRPNSDPRP | -0.17
RRIRRRPPRLPRPRPRPNSQPRP | -0.154
RRIRRRPPRLPRPRPRPNSSPRP | 0.105
RRIRRRPPRLPRPRPRPNTLPRP | -0.283
RRIRRRPPRLPRPRPRPNVEPRP | 0.318
RRIRRRPPRLPRPRPRPNVMPRP | -0.149

Sequence | shrunken log2 fold change
RRIRRRPPRLPRPRPRPNWGPRP | 0.412
RRIRRRPPRLPRPRPRPNYIPRP | -0.237
RRIRRRPPRLPRPRPRPNYQPRP | -0.263
RRIRRRPPRLPRPRPRPNYVPRP | -0.338
RRIRRRPPRLPRPRPRPPAWPRP | 0.919
RRIRRRPPRLPRPRPRPPCMPRP | 0.404
RRIRRRPPRLPRPRPRPPCVPRP | 1.02
RRIRRRPPRLPRPRPRPPDCPRP | 0.326
RRIRRRPPRLPRPRPRPPDEPRP | 0.726
RRIRRRPPRLPRPRPRPPGTPRP | 0.705
RRIRRRPPRLPRPRPRPPHCPRP | 1.08
RRIRRRPPRLPRPRPRPPKAPRP | -0.00754
RRIRRRPPRLPRPRPRPPKRPRP | 0.686
RRIRRRPPRLPRPRPRPPLIPRP | 0.511
RRIRRRPPRLPRPRPRPPNFPRP | 0.0782
RRIRRRPPRLPRPRPRPPPKPRP | 0.995
RRIRRRPPRLPRPRPRPPPWPRP | 0.868
RRIRRRPPRLPRPRPRPPQIPRP | 0.908
RRIRRRPPRLPRPRPRPPQTPRP | 0.828
RRIRRRPPRLPRPRPRPPSDPRP | 0.79
RRIRRRPPRLPRPRPRPPSWPRP | 0.295
RRIRRRPPRLPRPRPRPPVCPRP | 0.592
RRIRRRPPRLPRPRPRPPVFPRP | 0.55
RRIRRRPPRLPRPRPRPPVTPRP | 0.538
RRIRRRPPRLPRPRPRPPWGPRP | 0.0337

Sequence | shrunken log2 fold change
RRIRRRPPRLPRPRPRPPWLPRP | 0.634
RRIRRRPPRLPRPRPRPPWNPRP | 0.474
RRIRRRPPRLPRPRPRPPYDPRP | 0.213
RRIRRRPPRLPRPRPRPPYGPRP | 0.0935
RRIRRRPPRLPRPRPRPPYTPRP | 0.00247
RRIRRRPPRLPRPRPRPQATPRP | 0.233
RRIRRRPPRLPRPRPRPQCKPRP | -0.268
RRIRRRPPRLPRPRPRPQCLPRP | 0.066
RRIRRRPPRLPRPRPRPQCRPRP | 0.123
RRIRRRPPRLPRPRPRPQEEPRP | 0.0332
RRIRRRPPRLPRPRPRPQEFPRP | 0.041
RRIRRRPPRLPRPRPRPQFEPRP | 0.16
RRIRRRPPRLPRPRPRPQFPPRP | 0.133
RRIRRRPPRLPRPRPRPQGDPRP | 0.0133
RRIRRRPPRLPRPRPRPQGVPRP | -0.159
RRIRRRPPRLPRPRPRPQHHPRP | -0.0809
RRIRRRPPRLPRPRPRPQIGPRP | 0.164
RRIRRRPPRLPRPRPRPQIRPRP | 0.178
RRIRRRPPRLPRPRPRPQIWPRP | 0.279
RRIRRRPPRLPRPRPRPQKPPRP | -0.138
RRIRRRPPRLPRPRPRPQMMPRP | -0.232
RRIRRRPPRLPRPRPRPQMWPRP | -0.00576
RRIRRRPPRLPRPRPRPQNKPRP | -0.172
RRIRRRPPRLPRPRPRPQPFPRP | -0.0201
RRIRRRPPRLPRPRPRPQPLPRP | 0.509

Sequence | shrunken log2 fold change
RRIRRRPPRLPRPRPRPQRAPRP | 0.226
RRIRRRPPRLPRPRPRPQSIPRP | -0.0196
RRIRRRPPRLPRPRPRPQSKPRP | -0.0754
RRIRRRPPRLPRPRPRPQSRPRP | 0.00841
RRIRRRPPRLPRPRPRPQTAPRP | -0.11
RRIRRRPPRLPRPRPRPQTKPRP | 0.161
RRIRRRPPRLPRPRPRPQTQPRP | 0.506
RRIRRRPPRLPRPRPRPQTSPRP | 0.24
RRIRRRPPRLPRPRPRPQVCPRP | -0.175
RRIRRRPPRLPRPRPRPQVNPRP | -0.0663
RRIRRRPPRLPRPRPRPQWAPRP | 0.0248
RRIRRRPPRLPRPRPRPQWCPRP | 0.00425
RRIRRRPPRLPRPRPRPRAPPRP | 1.02
RRIRRRPPRLPRPRPRPRCGPRP | 0.474
RRIRRRPPRLPRPRPRPRCPPRP | 0.605
RRIRRRPPRLPRPRPRPRDEPRP | 0.48
RRIRRRPPRLPRPRPRPRDNPRP | 0.15
RRIRRRPPRLPRPRPRPRDPPRP | 0.74
RRIRRRPPRLPRPRPRPRDTPRP | 0.6
RRIRRRPPRLPRPRPRPRDYPRP | -0.116
RRIRRRPPRLPRPRPRPRFLPRP | 0.15
RRIRRRPPRLPRPRPRPRFNPRP | -0.189
RRIRRRPPRLPRPRPRPRFTPRP | 0.264
RRIRRRPPRLPRPRPRPRFWPRP | 0.652
RRIRRRPPRLPRPRPRPRFYPRP | -0.237

Sequence | shrunken log2 fold change
RRIRRRPPRLPRPRPRPRGDPRP | 0.393
RRIRRRPPRLPRPRPRPRGQPRP | 1.11
RRIRRRPPRLPRPRPRPRHSPRP | 0.226
RRIRRRPPRLPRPRPRPRHVPRP | 0.158
RRIRRRPPRLPRPRPRPRLHPRP | 0.435
RRIRRRPPRLPRPRPRPRLLPRP | 0.474
RRIRRRPPRLPRPRPRPRLQPRP | 0.349
RRIRRRPPRLPRPRPRPRLWPRP | 0.273
RRIRRRPPRLPRPRPRPRLYPRP | -0.00733
RRIRRRPPRLPRPRPRPRMFPRP | 0.556
RRIRRRPPRLPRPRPRPRMTPRP | 0.295
RRIRRRPPRLPRPRPRPRPYPRP | 1.17
RRIRRRPPRLPRPRPRPRRRPRP | 0.778
RRIRRRPPRLPRPRPRPRTAPRP | 0.458
RRIRRRPPRLPRPRPRPRVNPRP | 0.398
RRIRRRPPRLPRPRPRPRVQPRP | 0.445
RRIRRRPPRLPRPRPRPRVSPRP | 0.335
RRIRRRPPRLPRPRPRPRWGPRP | 0.533
RRIRRRPPRLPRPRPRPRYPPRP | 0.252
RRIRRRPPRLPRPRPRPRYTPRP | -0.186
RRIRRRPPRLPRPRPRPRYWPRP | 0.088
RRIRRRPPRLPRPRPRPSAVPRP | 0.368
RRIRRRPPRLPRPRPRPSCWPRP | 0.285
RRIRRRPPRLPRPRPRPSDKPRP | -0.492
RRIRRRPPRLPRPRPRPSDSPRP | 0.141
